± gives the standard deviation of the averaged measurements.
What was measured:
hTERT-HMEC = assay: percentage of EdU-negative (G0-arrested) nuclei per well, 72 h; higher = more G0 arrest; conditions: reference: sequence is the full UniProt precursor, the tested protein was the secreted form or ectodomain
MCF7 = assay: as above; conditions: reference: sequence is the full UniProt precursor, the tested protein was the secreted form or ectodomain
[1] = protein concentration 0.0225 µM
[2] = protein concentration 0.0075 µM
[3] = protein concentration 0.0102857 µM
[4] = protein concentration 0.102857 µM
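Note: secreted proteins added to cultured cells, EdU pulse at the end, nuclei found by Hoechst imaging, EdU status from nuclear versus surrounding ring intensity ratio, PBS as neutral control.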

MAAWSPAAAAPLLRGIRGLPLHHRMFATQTEGELRVTQILKEKFPRATAIKVTDISGGCGAMYEIKIESEEFKEKRTVQQHQMVNQALKEEIKEMHGLRIFTSVPKR [Q53S33]
percentage of EdU-negative (hTERT-HMEC; [1]): 4.56 ± 0.98% | percentage of EdU-negative (hTERT-HMEC; protein concentration 0.225 µM): 5.94 ± 0.72% | percentage of EdU-negative (MCF7; [1]): 26.66 ± 0.12% | percentage of EdU-negative (MCF7; protein concentration 0.225 µM): 26.7 ± 1.7%

MACWWPLLLELWTVMPTWAGDELLNICMNAKHHKRVPSPEDKLYEECIPWKDNACCTLTTSWEAHLDVSPLYNFSLFHCGLLMPGCRKHFIQAICFYECSPNLGPWIQPVGSLGWEVAPSGQGERVVNVPLCQEDCEEWWEDCRMSYTCKSNWRGGWDWSQGKNRCPKGAQCLPFSHYFPTPADLCEKTWSNSFKASPERRNSGRCLQKWFEPAQGNPNVAVARLFASSAPSWELSYTIMVCSLFLPFLS [A6ND01]
percentage of EdU-negative (hTERT-HMEC; [2]): 5.08 ± 0.06% | percentage of EdU-negative (hTERT-HMEC; protein concentration 0.075 µM): 7.68 ± 0.15% | percentage of EdU-negative (MCF7; [2]): 24.06 ± 0.21% | percentage of EdU-negative (MCF7; protein concentration 0.075 µM): 25.05 ± 0.12%

MADKVRRQRPRRRVCWALVAVLLADLLALSDTLAVMSVDLGSESMKVAIVKPGVPMEIVLNKESRRKTPVIVTLKENERFFGDSAASMAIKNPKATLRYFQHLLGKQADNPHVALYQARFPEHELTFDPQRQTVHFQISSQLQFSPEEVLGMVLNYSRSLAEDFAEQPIKDAVITVPVFFNQAERRAVLQAARMAGLKVLQLINDNTATALSYGVFRRKDINTTAQNIMFYDMGSGSTVCTIVTYQMVKTKEAGMQPQLQIRGVGFDRTLGGLEMELRLRERLAGLFNEQRKGQRAKDVRENPRAMAKLLREANRLKTVLSANADHMAQIEGLMDDVDFKAKVTRVEFEELCADLFERVPGPVQQALQSAEMSLDEIEQVILVGGATRVPRVQEVLLKAVGKEELGKNINADEAAAMGAVYQAAALSKAFKVKPFVVRDAVVYPILVEFTREVEEEPGIHSLKHNKRVLFSRMGPYPQRKVITFNRYSHDFNFHINYGDLGFLGPEDLRVFGSQNLTTVKLKGVGDSFKKYPDYESKGIKAHFNLDESGVLSLDRVESVFETLVEDSAEEESTLTKLGNTISSLFGGGTTPDAKENGTDTVQEEEESPAEGSKDEPGEQVELKEEAEAPVEDGSQPPPPEPKGDATPEGEKATEKENGDKSEAQKPSEKAEAGPEGVAPAPEGEKKQKPARKRRMVEEIGVELVVLDLPDLPEDKLAQSVQKLQDLTLRDLEKQEREKAANSLEAFIFETQDKLYQPEYQEVSTEEQREEISGKLSAASTWLEDEGVGATTVMLKEKLAELRKLCQGLFFRVEERKKWPERLSALDNLLNHSSMFLKGARLIPEMDQIFTEVEMTTLEKVINETWAWKNATLAEQAKLPATEKPVLLSKDIEAKMMALDREVQYLLNKAKFTKPRPRPKDKNGTRAEPPLNASASDQGEKVIPPAGQTEDAEPISEPEKVETGSEPGDTEPLELGGPGAEPEQKEQSTGQKRPLKNDEL [Q9Y4L1]
percentage of EdU-negative (hTERT-HMEC; [3]): 6.45 ± 1.3% | percentage of EdU-negative (hTERT-HMEC; [4]): 35.3 ± 5.6% | percentage of EdU-negative (MCF7; [3]): 23.6 ± 1.2% | percentage of EdU-negative (MCF7; [4]): 30.4 ± 1.7%

MAEAKTHWLGAALSLIPLIFLISGAEAASFQRNQLLQKEPDLRLENVQKFPSPEMIRALEYIENLRQQAHKEESSPDYNPYQGVSVPLQQKENGDESHLPERDSLSEEDWMRIILEALRQAENEPQSAPKENKPYALNSEKNFPMDMSDDYETQQWPERKLKHMQFPPMYEENSRDNPFKRTNEIVEEQYTPQSLATLESVFQELGKLTGPNNQKRERMDEEQKLYTDDEDDIYKANNIAYEDVVGGEDWNPVEEKIESQTQEEVRDSKENIEKNEQINDEMKRSGQLGIQEEDLRKESKDQLSDDVSKVIAYLKRLVNAAGSGRLQNGQNGERATRLFEKPLDSQSIYQLIEISRNLQIPPEDLIEMLKTGEKPNGSVEPERELDLPVDLDDISEADLDHPDLFQNRMLSKSGYPKTPGRAGTEALPDGLSVEDILNLLGMESAANQKTSYFPNPYNQEKVLPRLPYGAGRSRSNQLPKAAWIPHVENRQMAYENLNDKDQELGEYLARMLVKYPEIINSNQVKRVPGQGSSEDDLQEEEQIEQAIKEHLNQGSSQETDKLAPVSKRFPVGPPKNDDTPNRQYWDEDLLMKVLEYLNQEKAEKGREHIAKRAMENM
percentage of EdU-negative (hTERT-HMEC; protein concentration 0.006 µM): 5.24 ± 0.54% | percentage of EdU-negative (hTERT-HMEC; protein concentration 0.06 µM): 5.44 ± 0.097% | percentage of EdU-negative (MCF7; protein concentration 0.006 µM): 26.9 ± 0.33% | percentage of EdU-negative (MCF7; protein concentration 0.06 µM): 27.1 ± 1.7%

MAEGNTLISVDYEIFGKVQGVFFRKHTQAEGKKLGLVGWVQNTDRGTVQGQLQGPISKVRHMQEWLETRGSPKSHIDKANFNNEKVILKLDYSDFQIVK [G3V2U7]
percentage of EdU-negative (hTERT-HMEC; [1]): 4.35 ± 0.4% | percentage of EdU-negative (hTERT-HMEC; protein concentration 0.225 µM): 5.31 ± 0.75% | percentage of EdU-negative (MCF7; [1]): 24.4 ± 1.6% | percentage of EdU-negative (MCF7; protein concentration 0.225 µM): 25.9 ± 3.2%
